A word on the Kd: it is a measure of binding affinity in units of concentration. In general, koff refers to a measure of how fast the partners let go of each other. Broadly, the kon is the second-order rate constant of association. Read a high kon as faster complex formation.

Substitutions are numbered along the chain they refer to. Names may count otherwise. Where only a bound is given, the exact number is not on record here.

We go through 26 molecules from patent publication US20180237497A1 (CANCER RESEARCH TECHNOLOGY, published 2018).

Sequences and labels used below:
B1: domain 11^AB5 S1600L (receptor)
chain: MKSNEHDDCQVTNPSTGHLFDLSSLSGRAGFTAAYAKGWGVYMSICGENENCPPGVGACFGQTRISVGKANKRLRYVDQVLQLVYKDGSPCPLKSGLSYKSVISFVCRPEAGPTNRPMLISLDKQTCTLFFSWHTPLACEQATECSV
notes: See m5
B2: domain 11^AB5 G1603A (receptor)
chain: B1 chain with L93S, G96A
notes: See m5
B3: domain 11^AB5 K1631R (receptor)
chain: B1 chain with L93S, K124R
notes: See m5; HI loop mutant
B4: domain 11^AB5 Q1632L (receptor)
chain: B1 chain with L93S, Q125L
notes: See m5; HI loop mutant
B5: domain 11^AB5 Q1632K (receptor)
chain: B1 chain with L93S, Q125K
notes: See m5; HI loop mutant
B6: domain 11^AB5 Q1632E (receptor)
chain: B1 chain with L93S, Q125E
notes: See m5; HI loop mutant
B7: domain 11^AB5 P1599G (receptor)
chain: B1 chain with P92G, L93S
notes: See m5; the asterisk is not explained
B8: domain 11^AB5 K1601A (receptor)
chain: B1 chain with L93S, K94A
notes: See m5
B9: domain 11^AB5 P1599V (receptor)
chain: B1 chain with P92V, L93S
notes: as for B7
B10: domain 11^AB5 P1599A (receptor)
chain: B1 chain with P92A, L93S
notes: as for B7
B11: domain 11^AB5 S1600Y (receptor)
chain: B1 chain with L93Y
notes: See m5
B12: domain 11^AB5 S1600A (receptor)
chain: B1 chain with L93A
notes: See m5
B13: domain 11^AB5 L1604A (receptor)
chain: B1 chain with L93S, L97A
notes: See m5
B14: domain 11^AB5 S1600V (receptor)
chain: B1 chain with L93V
notes: See m5
B15: domain 11^AB5 K1631A (receptor)
chain: B1 chain with L93S, K124A
notes: See m5; HI loop mutant
B16: domain 11^AB5 S1600N (receptor)
chain: B1 chain with L93N
notes: See m5
B17: domain 11^AB5 S1602N (receptor)
chain: B1 chain with L93S, S95N
notes: See m5
B18: domain 11^AB5 S1602A (receptor)
chain: B1 chain with L93S, S95A
notes: See m5
B19: domain 11^AB5 K1631W (receptor)
chain: B1 chain with L93S, K124W
notes: See m5; HI loop mutant
B20: domain 11^AB5 Q1632A (receptor)
chain: B1 chain with L93S, Q125A
notes: See m5; HI loop mutant
B21: domain 11^AB5 T1633A (receptor)
chain: B1 chain with L93S, T126A
notes: See m5; HI loop mutant
B22: domain 11^AB5 K1631E (receptor)
chain: B1 chain with L93S, K124E
notes: See m5; HI loop mutant
B23: domain 11^AB3 P1597H K1631W (receptor)
chain: B1 chain with A36S, G38S, W39G, G40V, P90H, L93S, K124W
notes: See m5
B24: domain 11^AB3 Q1569R P1597K (receptor)
chain: B1 chain with A36S, G38S, W39G, G40V, Q62R, P90K, L93S
notes: See m5
B25: domain 11^AB3 Q1569R P1597K S1602H (receptor)
chain: B1 chain with A36S, G38S, W39G, G40V, Q62R, P90K, L93S, S95H
notes: See m5
B26: domain 11^AB3 P1597K S1602H (receptor)
chain: B1 chain with A36S, G38S, W39G, G40V, P90K, L93S, S95H
notes: See m5

In the first assay the target is T1, human IGF2^1-67 (mature insulin-like growth factor 2) (human, UniProt P01344 25-91, biotinylated (site not stated) where immobilised on the chip (Tables 1-4)).
T1 construct: mature; also called mature IGF2; biotinylated IGF2
T1 sequence (P01344 25-91): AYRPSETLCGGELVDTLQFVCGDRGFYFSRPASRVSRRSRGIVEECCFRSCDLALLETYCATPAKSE
The assay can be described thus: SPR kinetic, biotin-IGF2 on chip, pH 7.4. An excerpt: (§1) Surface plasmon resonance (SPR) binding analysis of recombinant M6P/IGF2R domain 11 mutants interaction with IGF2. Kon indicates association (on) rate; koff, dissociation (off) rate; RU, response units. Binding to IGF2 assessed with BIAcore T200 using purified biotinylated IGF2 and IGF1 on a streptavidin biosensor chip. Recombinant proteins were expressed either in E. coli and/or P. pastoris. All the mutants in the FG and CD loops are on the domain 11^AB5 background for the AB loop unless otherwise stated. All experiments were carried out at 25° C. in HBS-EP buffer (pH 7.4), were repeated 2-5 times on two independent BIAcore chips. nd=not determined. Data for KD expressed as mean of each experiment, and means of kon and koff are shown.
(§2) Final kinetic analysis of mutants by SPR was conducted using a Biacore T200 biosensor at 25° C. in either HBS-EP (10 mM HEPES pH 7.4, 150 mM NaCl, 3 mM EDTA, and 0.005% (v/v) surfactant P20) or MES-EP (20 mM MES pH 6.5, 150 mM NaCl, 3 mM EDTA, and 0.005% (v/v) surfactant P20) at a flow-rate of 40 μL min⁻¹. […] For the analysis of the Fc-domain 11^AB5 interaction, approximately 50 RU of a biotinylated IGF2:biotinylated ubiquitin mixture (1:8 proportion) was immobilized on the CM5-streptavidin chip. This interaction was also analysed by immobilizing the Fc-domain 11^AB5 and Fc-domain 11^AB5-RHH (or Fc-domain 11^I1572A as control) by Human Antibody Capture (monoclonal mouse anti-human IgG antibody immobilised on a CM5 chip by amine coupling, GE Healthcare) with and without human IgG1 Fc fragment (Bethyl Laboratories, UK) in the control flow cell. […] T200 BiaEvaluation software (GE Healthcare) was used to fit the resulting curves according to a 1:1 binding model. Steady state affinities were determined using the kinetic data, taking the response average at 5 seconds before injection end and for 5 seconds average.
(In general: SPR reads the build-up and loss of mass on a sensor chip optically.)
B1: the Kd was over 200 nM and the koff was over 0.2 s⁻¹.
As to B2, the Kd came out at 8.69 nM, the dissociation rate constant (koff) amounted to 0.0183 s⁻¹ and the kon turned out to be 2.14e+06 M⁻¹ s⁻¹.
The molecule B3 displayed a dissociation constant Kd of 12.3 nM, a dissociation rate constant (koff) of 0.0867 s⁻¹ and an on-rate constant (kon) of 7.18e+06 M⁻¹ s⁻¹.
For B4, the dissociation constant (Kd) stood at 5.75 nM, the koff is 0.0175 s⁻¹ and the on-rate constant (kon) amounted to 3.18e+06 M⁻¹ s⁻¹.
The like results for B5 were, in that order, 11.1 nM, 0.0212 s⁻¹ and 1.96e+06 M⁻¹ s⁻¹.
On the same counts, the results for B6 are 39.8 nM, 0.0202 s⁻¹ and 520000 M⁻¹ s⁻¹.
For B7, the Kd was over 200 nM and the koff was over 0.2 s⁻¹.
Molecule B8 returned an equilibrium dissociation constant (Kd) of 6.8 nM, a koff of 0.022 s⁻¹ and a kon of 3.26e+06 M⁻¹ s⁻¹.
As to B9, the Kd was over 100 nM and the dissociation rate constant (koff) was over 0.1 s⁻¹.
In turn, B10 gave a dissociation constant Kd of over 70 nM and an off-rate (koff) of over 0.1 s⁻¹.
Regarding B11, the Kd is over 200 nM and the koff is over 0.2 s⁻¹.
On to B12, for which the equilibrium dissociation constant (Kd) was determined as 89.1 nM, the off-rate (koff) turned out to be 0.213 s⁻¹ and the kon was 2.39e+06 M⁻¹ s⁻¹.
Molecule B13 had a Kd of 48.3 nM, an off-rate constant (koff) of 0.0397 s⁻¹ and a kon of 790000 M⁻¹ s⁻¹.
The molecule B14 showed a Kd of over 200 nM and a koff of over 0.2 s⁻¹.
Molecule B15 displayed a Kd of over 200 nM.
In turn, B16 gave a Kd of 24.4 nM, a koff of 0.091 s⁻¹ and a kon of 3.95e+06 M⁻¹ s⁻¹.
Take B17: binding was characterised by a dissociation constant (Kd) of 4.75 nM, the off-rate (koff) stood at 0.0112 s⁻¹ and the on-rate (kon) turned out to be 2.38e+06 M⁻¹ s⁻¹.
In turn, B18 showed a Kd of 16.5 nM, a koff of 0.025 s⁻¹ and a kon of 1.57e+06 M⁻¹ s⁻¹.
In the case of B19, binding was put at a Kd of 2.94 nM, the koff stood at 0.0034 s⁻¹ and the kon stood at 1.18e+06 M⁻¹ s⁻¹.
For B20, the equilibrium dissociation constant (Kd) is 3.76 nM, the off-rate (koff) worked out at 0.0167 s⁻¹ and the association rate constant (kon) was found to be 4.5e+06 M⁻¹ s⁻¹.
The molecule B21 had an equilibrium dissociation constant (Kd) of 26.4 nM, a koff of 0.0196 s⁻¹ and a kon of 800000 M⁻¹ s⁻¹.
Molecule B22 had a Kd of over 100 nM and a koff of over 0.1 s⁻¹.

For the next assay, the target named is T1, human IGF2^1-67 (mature insulin-like …). Put plainly: SPR kinetic, biotin-IGF2 on chip, pH 7.4. The source holds these as a separate data set. Here is the method: as §2, with “average. Thermodynamic data was performed across the temperature range of 10° C. to 30° C., van't Hoff and Erying plots generated and ΔH, −TΔS and ΔG values determined as previously described.” for “average.”
The molecule B23 registered a Kd of 17.6 nM, a koff of 0.348 s⁻¹ and an on-rate constant (kon) of 1.97e+07 M⁻¹ s⁻¹.
B24: binding was put at a Kd of 1.34 nM, the dissociation rate constant (koff) was determined as 0.0241 s⁻¹ and the kon worked out at 2e+07 M⁻¹ s⁻¹.
As for B25, the equilibrium dissociation constant (Kd) is 0.79 nM, the off-rate (koff) is 0.016 s⁻¹ and the kon was 2.01e+07 M⁻¹ s⁻¹.
The like results for B26 were, in that order, 3.73 nM, 0.0102 s⁻¹ and 2.74e+06 M⁻¹ s⁻¹.

Another assay shares this target. Put plainly: SPR steady state, biotin-IGF2 on chip, pH 7.4. On the procedure: as §2, with “average. Thermodynamic data was performed across the temperature range of 10° C. to 30° C., van't Hoff and Erying plots generated and ΔH, −TΔS and ΔG values determined as previously described.” for “average.”
B23 returned a Kd of 18.7 nM.
Consider B24, for which the Kd is 2.27 nM.
B25 registered a dissociation constant (Kd) of 1.39 nM.
Same read-out and setting: then B26, with 5.33 nM.

Another assay shares this target. Put plainly: SPR steady state, biotin-IGF2 on chip, pH 7.4. The source holds these as a separate data set.
Text: as §1, §2
In the case of B1, the equilibrium dissociation constant (Kd) is over 200 nM.
B2 displayed a Kd of 12.1 nM.
For B3, the Kd came to 13.5 nM.
For B4, binding was characterised by a dissociation constant (Kd) of 9.34 nM.
In the case of B5, the affinity, expressed as Kd, was 12.8 nM.
B6 displayed a Kd of 52.4 nM.
As for B7, the Kd was over 200 nM.
B8 registered a Kd of 8.51 nM.
On the same count and under the same terms, then B9, with over 100 nM; and B10, with over 70 nM; and B11, with over 200 nM.
In turn, B12 had a dissociation constant (Kd) of 84.7 nM.
B13 had a Kd of 60 nM.
With B14, the Kd was over 200 nM.
Take B15: the Kd is over 200 nM.
Same read-out and setting: to B16 belongs 29.7 nM; to B17, 7.93 nM.
In turn, B18 came in with a dissociation constant (Kd) of 19.9 nM.
As to B19, the Kd stood at 12.2 nM.
B20 had an equilibrium dissociation constant (Kd) of 4.84 nM.
For B21, the Kd amounted to 53.5 nM.
In turn, B22 displayed a Kd of over 100 nM.
